Data from publication PMC10786891, “Massively parallel profiling of RNA-targeting CRISPR-Cas13d”.

T1: EsCas13d, nuclease-dead (Eubacterium siraeum, UniProt B0MS50, R295A;H300A;R849A;H854A)
T1 sequence: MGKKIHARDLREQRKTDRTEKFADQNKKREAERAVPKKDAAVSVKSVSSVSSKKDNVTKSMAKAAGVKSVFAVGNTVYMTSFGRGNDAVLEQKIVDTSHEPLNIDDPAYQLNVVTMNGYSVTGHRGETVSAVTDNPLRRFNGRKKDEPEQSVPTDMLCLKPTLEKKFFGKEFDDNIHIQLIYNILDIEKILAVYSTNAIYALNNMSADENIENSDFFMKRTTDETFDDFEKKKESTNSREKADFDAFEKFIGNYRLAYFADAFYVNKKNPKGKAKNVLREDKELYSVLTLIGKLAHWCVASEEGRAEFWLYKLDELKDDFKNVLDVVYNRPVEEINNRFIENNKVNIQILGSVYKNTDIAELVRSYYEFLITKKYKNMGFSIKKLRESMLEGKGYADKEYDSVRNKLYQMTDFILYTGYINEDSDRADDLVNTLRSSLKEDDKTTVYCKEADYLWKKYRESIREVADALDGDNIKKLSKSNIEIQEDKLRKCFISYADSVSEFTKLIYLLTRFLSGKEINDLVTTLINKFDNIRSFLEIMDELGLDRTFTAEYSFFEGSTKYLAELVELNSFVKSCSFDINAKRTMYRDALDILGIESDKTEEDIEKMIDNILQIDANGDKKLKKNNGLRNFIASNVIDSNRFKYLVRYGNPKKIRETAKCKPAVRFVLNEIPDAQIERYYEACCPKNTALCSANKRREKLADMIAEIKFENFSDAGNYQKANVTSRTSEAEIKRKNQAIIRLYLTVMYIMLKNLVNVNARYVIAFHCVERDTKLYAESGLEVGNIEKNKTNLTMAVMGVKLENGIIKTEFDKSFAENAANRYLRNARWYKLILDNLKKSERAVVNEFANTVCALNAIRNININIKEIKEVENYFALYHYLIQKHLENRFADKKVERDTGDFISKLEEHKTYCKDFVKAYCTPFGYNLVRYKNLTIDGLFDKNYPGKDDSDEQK

B1: target 1 MT 5'PFS GCG 3'PFS UGA (mixed)
RNA 1: CACCCGUGCAAAAAUGCAGGGGUCUAAAACUGAGCGGAUAACCUCUCUAUGG
RNA 2: GGGAAUGGAUCCACAUCUACGAAUUCGCGCCAUAGAGAGGUUAUCCGCUCAUGAAGAUCGGAAGAGCACACGU
B2: target 1 MT 5'PFS AAU 3'PFS AAC (mixed)
RNA 1: CACCCGUGCAAAAAUGCAGGGGUCUAAAACUGAGCGGAUAACCUCUCUAUGG
RNA 2: GGGAAUGGAUCCACAUCUACGAAUUCAAUCCAUAGAGAGGUUAUCCGCUCAAACAGAUCGGAAGAGCACACGU
B3: target 1 MT 5'PFS ACU 3'PFS AUA (mixed)
RNA 1: CACCCGUGCAAAAAUGCAGGGGUCUAAAACUGAGCGGAUAACCUCUCUAUGG
RNA 2: GGGAAUGGAUCCACAUCUACGAAUUCACUCCAUAGAGAGGUUAUCCGCUCAAUAAGAUCGGAAGAGCACACGU
B4: target 1 MT 5'PFS CUC 3'PFS CGA (mixed)
RNA 1: CACCCGUGCAAAAAUGCAGGGGUCUAAAACUGAGCGGAUAACCUCUCUAUGG
RNA 2: GGGAAUGGAUCCACAUCUACGAAUUCCUCCCAUAGAGAGGUUAUCCGCUCACGAAGAUCGGAAGAGCACACGU
B5: target 1 MT 5'PFS UAA 3'PFS CAA (mixed)
RNA 1: CACCCGUGCAAAAAUGCAGGGGUCUAAAACUGAGCGGAUAACCUCUCUAUGG
RNA 2: GGGAAUGGAUCCACAUCUACGAAUUCUAACCAUAGAGAGGUUAUCCGCUCACAAAGAUCGGAAGAGCACACGU
B6: target 1 MT 5'PFS AGG 3'PFS UAU (mixed)
RNA 1: CACCCGUGCAAAAAUGCAGGGGUCUAAAACUGAGCGGAUAACCUCUCUAUGG
RNA 2: GGGAAUGGAUCCACAUCUACGAAUUCAGGCCAUAGAGAGGUUAUCCGCUCAUAUAGAUCGGAAGAGCACACGU
B7: target 1 MT 5'PFS UCC 3'PFS UUG (mixed)
RNA 1: CACCCGUGCAAAAAUGCAGGGGUCUAAAACUGAGCGGAUAACCUCUCUAUGG
RNA 2: GGGAAUGGAUCCACAUCUACGAAUUCUCCCCAUAGAGAGGUUAUCCGCUCAUUGAGAUCGGAAGAGCACACGU
B8: target 1 MT 5'PFS UGG 3'PFS UCA (mixed)
RNA 1: CACCCGUGCAAAAAUGCAGGGGUCUAAAACUGAGCGGAUAACCUCUCUAUGG
RNA 2: GGGAAUGGAUCCACAUCUACGAAUUCUGGCCAUAGAGAGGUUAUCCGCUCAUCAAGAUCGGAAGAGCACACGU
B9: target 1 MT 5'PFS AGG 3'PFS UAC (mixed)
RNA 1: CACCCGUGCAAAAAUGCAGGGGUCUAAAACUGAGCGGAUAACCUCUCUAUGG
RNA 2: GGGAAUGGAUCCACAUCUACGAAUUCAGGCCAUAGAGAGGUUAUCCGCUCAUACAGAUCGGAAGAGCACACGU
B10: target 1 G13C,G15U (mixed)
RNA 1: CACCCGUGCAAAAAUGCAGGGGUCUAAAACUGAGCGGAUAACCUCUCUAUGG
RNA 2: GGGAAUGGAUCCACAUCUACGAAUUCGUACCAUAGAUACGUUAUCCGCUCACCGAGAUCGGAAGAGCACACGU
B11: target 1 MT 5'PFS GCU 3'PFS CAU (mixed)
RNA 1: CACCCGUGCAAAAAUGCAGGGGUCUAAAACUGAGCGGAUAACCUCUCUAUGG
RNA 2: GGGAAUGGAUCCACAUCUACGAAUUCGCUCCAUAGAGAGGUUAUCCGCUCACAUAGAUCGGAAGAGCACACGU
B12: target 1 MT 5'PFS UCG 3'PFS UGA (mixed)
RNA 1: CACCCGUGCAAAAAUGCAGGGGUCUAAAACUGAGCGGAUAACCUCUCUAUGG
RNA 2: GGGAAUGGAUCCACAUCUACGAAUUCUCGCCAUAGAGAGGUUAUCCGCUCAUGAAGAUCGGAAGAGCACACGU
B13: target 1 MT 5'PFS ACG 3'PFS UAA (mixed)
RNA 1: CACCCGUGCAAAAAUGCAGGGGUCUAAAACUGAGCGGAUAACCUCUCUAUGG
RNA 2: GGGAAUGGAUCCACAUCUACGAAUUCACGCCAUAGAGAGGUUAUCCGCUCAUAAAGAUCGGAAGAGCACACGU
B14: target 1 MT 5'PFS GAA 3'PFS AAU (mixed)
RNA 1: CACCCGUGCAAAAAUGCAGGGGUCUAAAACUGAGCGGAUAACCUCUCUAUGG
RNA 2: GGGAAUGGAUCCACAUCUACGAAUUCGAACCAUAGAGAGGUUAUCCGCUCAAAUAGAUCGGAAGAGCACACGU
B15: target 1 MT 5'PFS GCG 3'PFS UGC (mixed)
RNA 1: CACCCGUGCAAAAAUGCAGGGGUCUAAAACUGAGCGGAUAACCUCUCUAUGG
RNA 2: GGGAAUGGAUCCACAUCUACGAAUUCGCGCCAUAGAGAGGUUAUCCGCUCAUGCAGAUCGGAAGAGCACACGU
B16: target 1 MT 5'PFS GGC 3'PFS UUA (mixed)
RNA 1: CACCCGUGCAAAAAUGCAGGGGUCUAAAACUGAGCGGAUAACCUCUCUAUGG
RNA 2: GGGAAUGGAUCCACAUCUACGAAUUCGGCCCAUAGAGAGGUUAUCCGCUCAUUAAGAUCGGAAGAGCACACGU
B17: target 1 MT 5'PFS ACU 3'PFS AUU (mixed)
RNA 1: CACCCGUGCAAAAAUGCAGGGGUCUAAAACUGAGCGGAUAACCUCUCUAUGG
RNA 2: GGGAAUGGAUCCACAUCUACGAAUUCACUCCAUAGAGAGGUUAUCCGCUCAAUUAGAUCGGAAGAGCACACGU
B18: target 1 MT 5'PFS AGG 3'PFS UAG (mixed)
RNA 1: CACCCGUGCAAAAAUGCAGGGGUCUAAAACUGAGCGGAUAACCUCUCUAUGG
RNA 2: GGGAAUGGAUCCACAUCUACGAAUUCAGGCCAUAGAGAGGUUAUCCGCUCAUAGAGAUCGGAAGAGCACACGU
B19: target 1 MT 5'PFS UAA 3'PFS CAG (mixed)
RNA 1: CACCCGUGCAAAAAUGCAGGGGUCUAAAACUGAGCGGAUAACCUCUCUAUGG
RNA 2: GGGAAUGGAUCCACAUCUACGAAUUCUAACCAUAGAGAGGUUAUCCGCUCACAGAGAUCGGAAGAGCACACGU
B20: target 1 MT 5'PFS AAU 3'PFS AAU (mixed)
RNA 1: CACCCGUGCAAAAAUGCAGGGGUCUAAAACUGAGCGGAUAACCUCUCUAUGG
RNA 2: GGGAAUGGAUCCACAUCUACGAAUUCAAUCCAUAGAGAGGUUAUCCGCUCAAAUAGAUCGGAAGAGCACACGU
B21: target 1 MT 5'PFS ACU 3'PFS AUC (mixed)
RNA 1: CACCCGUGCAAAAAUGCAGGGGUCUAAAACUGAGCGGAUAACCUCUCUAUGG
RNA 2: GGGAAUGGAUCCACAUCUACGAAUUCACUCCAUAGAGAGGUUAUCCGCUCAAUCAGAUCGGAAGAGCACACGU
B22: target 1 MT 5'PFS UCG 3'PFS UGU (mixed)
RNA 1: CACCCGUGCAAAAAUGCAGGGGUCUAAAACUGAGCGGAUAACCUCUCUAUGG
RNA 2: GGGAAUGGAUCCACAUCUACGAAUUCUCGCCAUAGAGAGGUUAUCCGCUCAUGUAGAUCGGAAGAGCACACGU
B23: target 1 MT 5'PFS GGC 3'PFS UUC (mixed)
RNA 1: CACCCGUGCAAAAAUGCAGGGGUCUAAAACUGAGCGGAUAACCUCUCUAUGG
RNA 2: GGGAAUGGAUCCACAUCUACGAAUUCGGCCCAUAGAGAGGUUAUCCGCUCAUUCAGAUCGGAAGAGCACACGU
B24: target 1 MT 5'PFS UAC 3'PFS UCU (mixed)
RNA 1: CACCCGUGCAAAAAUGCAGGGGUCUAAAACUGAGCGGAUAACCUCUCUAUGG
RNA 2: GGGAAUGGAUCCACAUCUACGAAUUCUACCCAUAGAGAGGUUAUCCGCUCAUCUAGAUCGGAAGAGCACACGU
B25: target 1 MT 5'PFS UCC 3'PFS UUU (mixed)
RNA 1: CACCCGUGCAAAAAUGCAGGGGUCUAAAACUGAGCGGAUAACCUCUCUAUGG
RNA 2: GGGAAUGGAUCCACAUCUACGAAUUCUCCCCAUAGAGAGGUUAUCCGCUCAUUUAGAUCGGAAGAGCACACGU
B26: target 1 C4A,C7A (mixed)
RNA 1: CACCCGUGCAAAAAUGCAGGGGUCUAAAACUGAGCGGAUAACCUCUCUAUGG
RNA 2: GGGAAUGGAUCCACAUCUACGAAUUCGUACCAUAGAGAGGUUAUACGAUCACCGAGAUCGGAAGAGCACACGU
B27: target 1 MT 5'PFS GAA 3'PFS AAC (mixed)
RNA 1: CACCCGUGCAAAAAUGCAGGGGUCUAAAACUGAGCGGAUAACCUCUCUAUGG
RNA 2: GGGAAUGGAUCCACAUCUACGAAUUCGAACCAUAGAGAGGUUAUCCGCUCAAACAGAUCGGAAGAGCACACGU
B28: target 1 MT 5'PFS UGG 3'PFS UCG (mixed)
RNA 1: CACCCGUGCAAAAAUGCAGGGGUCUAAAACUGAGCGGAUAACCUCUCUAUGG
RNA 2: GGGAAUGGAUCCACAUCUACGAAUUCUGGCCAUAGAGAGGUUAUCCGCUCAUCGAGAUCGGAAGAGCACACGU

The binders below were run against T1, EsCas13d, nuclease-dead (assay: crRNA (strand 1, pre-loaded); Mg2+; 40 mM Tris-HCl pH 7.5, 150 mM NaCl, 6 mM MgCl2, 1 mM DTT, 0.1% Tween-20, 0.2 mg/ml BSA; 25 C; 10 min per concentration, then washed). Details: tags: His6-TwinStrep-SUMO cleaved; N-terminal SNAP kept (SNAP-Surface 488); label: 3' end held by stalled T7 RNA polymerase.

Which Kd does the source give for B1 here?
Its Kd is 20.8 ± 7.75 nM.

B2 was tested. Which Kd did it give?
Its Kd is 47.5 ± 18.5 nM.

For B3, which Kd is on record?
The Kd was 67 ± 18 nM.

How did the Kd turn out when B4 was run?
The Kd was 80 ± 40 nM.

Which Kd does the source give for B5 here?
The Kd was roughly 52.5 nM.

For B6, which Kd is on record?
Its Kd is 35 ± 16.5 nM.

How did the Kd turn out when B7 was run?
The Kd was 13.3 ± 2.45 nM.

B8 was tested. Which Kd did it give?
The Kd was 70 ± 29 nM.

With B9 as the binder, how does the Kd read?
Its Kd is 32 ± 13 nM.

For B10, which Kd is on record?
Its Kd is 66 ± 18 nM.

B11 was tested. Which Kd did it give?
The Kd was 51 ± 15 nM.

Which Kd does the source give for B12 here?
The Kd was 33 ± 9.5 nM.

With B13 as the binder, how does the Kd read?
Its Kd is 13.5 ± 5 nM.

With B14 as the binder, how does the Kd read?
Its Kd is 40.5 ± 13 nM.

How did the Kd turn out when B15 was run?
Its Kd is 22.5 ± 6.5 nM.

B16 was tested. Which Kd did it give?
The Kd was 11.7 ± 2.55 nM.

B17 was tested. Which Kd did it give?
Its Kd is 53 ± 26 nM.

For B18, which Kd is on record?
The Kd was 23 ± 6.5 nM.

With B19 as the binder, how does the Kd read?
The Kd was 53 ± 22 nM.

Which Kd does the source give for B20 here?
Its Kd is 38 ± 17 nM.

How did the Kd turn out when B21 was run?
Its Kd is roughly 50 nM.

How did the Kd turn out when B22 was run?
Its Kd is 57 ± 22 nM.

Which Kd does the source give for B23 here?
Its Kd is 12.9 ± 2.4 nM.

B24 was tested. Which Kd did it give?
The Kd was 9.9 ± 3.2 nM.

Which Kd does the source give for B25 here?
Its Kd is 11 ± 4 nM.

How did the Kd turn out when B26 was run?
The Kd was 6.6 ± 0.4 nM.

For B27, which Kd is on record?
Its Kd is roughly 47 nM.

Which Kd does the source give for B28 here?
Its Kd is 71.5 ± 22.5 nM.
